Experiment [1] deals with T1, LAG-3_D3D4-His: 3rd and 4th extracellular immunoglobulin-like domains (263-450) of human LAG-3 with … (UniProt P18627 263-450).
T1 chain: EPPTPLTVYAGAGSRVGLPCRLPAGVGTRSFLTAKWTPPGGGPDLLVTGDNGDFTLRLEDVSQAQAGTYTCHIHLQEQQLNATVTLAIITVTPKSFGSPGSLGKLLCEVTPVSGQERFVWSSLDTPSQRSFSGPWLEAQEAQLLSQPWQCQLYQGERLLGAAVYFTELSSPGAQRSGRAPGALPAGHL
The experiment in a line: SPR (Biacore T200). For orientation: In SPR one partner is held on a chip, and binding of the other changes the refractive index at the surface.

Experiment [2] concerns the target T2, human LAG-3 (full length, expressed on cells) (human, UniProt P18627 23-525).
T2 construct: also called CD223; hLAG-3
T2 sequence: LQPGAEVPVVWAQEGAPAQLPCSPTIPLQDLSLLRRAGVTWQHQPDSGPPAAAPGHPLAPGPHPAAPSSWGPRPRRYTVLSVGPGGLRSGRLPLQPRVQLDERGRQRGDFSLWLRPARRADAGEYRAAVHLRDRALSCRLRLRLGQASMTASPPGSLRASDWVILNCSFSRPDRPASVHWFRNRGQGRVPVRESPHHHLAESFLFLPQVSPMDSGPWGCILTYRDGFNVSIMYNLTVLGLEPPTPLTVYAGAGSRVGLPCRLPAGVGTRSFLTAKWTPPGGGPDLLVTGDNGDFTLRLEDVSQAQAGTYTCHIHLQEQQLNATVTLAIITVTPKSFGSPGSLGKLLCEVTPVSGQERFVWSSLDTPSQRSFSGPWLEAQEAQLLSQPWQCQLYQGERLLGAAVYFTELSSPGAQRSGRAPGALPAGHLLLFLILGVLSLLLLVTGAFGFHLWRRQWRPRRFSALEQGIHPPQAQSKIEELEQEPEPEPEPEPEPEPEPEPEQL
Briefly: flow cytometry on 293T-lacZ cells expressing human LAG-3. (Flow cytometry measures light scatter and fluorescence of single cells or particles in a stream.)

Here are results for 11 molecules from patent publication US20200262917A1 (Daiichi Sankyo, published 2020).

B1: humanized anti-human LAG-3 antibody hLA212_H3/L2 (antibody, human IgG1, kappa, V domains shown)
VH: EVQLVESGGGLVQPGGSLRLSCAASGFTYRSYVMAWVRQAPGKGLEWVASISTGGGNTYYRDSVKGRFTISRDNAKNTLYLQMDSLRAEDTAVYYCAEDMSNSGYGLFDYWGQGTLVTVSS
VL: DIQMTQSPSSLSASVGDRVTITCKAGQNVDNNIAWYQQKPGQSPKLLIYYASNRNTGVPSRFSGSGYGTDFTLTISSLQPEDFATYYCQRISNSPYTFGQGTKVEIKR
notes: Human IgG1/kappa; not in a low fucose form; also called humanized hLA212_H3/L2
For the molecule B1, the Kd (usually the free concentration of one partner at which half of the binding sites on the other are occupied at equilibrium, for simple one-to-one binding) in experiment [1] stood at 62 pM. Besides, the binding result in experiment [2] is reported as “binds”.

B2: human chimeric anti-LAG-3 antibody cLA212 (antibody, human IgG1, V domains shown)
VH: EVQLVESGGGLVQPGRSLKLSCAASGFTYRSYVMAWVRQAPTRGLEWVASISTGGGNTYYRDSVKGRFTISRDNAKNTLYLQMDSLRSEDTATYYCAEDMSNSGYGLFDYWGQGVMVTVSS
VL: NIVMTQSPKSMSISVGDRVTMNCKAGQNVDNNIAWYQKKPGQSPKLLIYYASNRNTGVPDRFTGGGYGTDFTLTINSVQAEDAAFYYCQRISNSPYTFGAGTELELKR
notes: Human IgG1/kappa chimera; The C-terminal ends 470 and 234 are inferred from the humanized chains, which differ from cLA212 by substitutions only; also called rLA212 human chimeric antibody
Regarding B2, in experiment [2], the binding result is reported as “binds”.

B3: humanized anti-human LAG-3 antibody hLA212_H2/L5 (antibody, human IgG1, kappa, V domains shown)
VH: EVQLVESGGGLVQPGGSLRLSCAASGFTYRSYVMAWVRQAPGKGLEWVGSISTGGGNTYYRDSVKGRFTISRDNAKNTLYLQMNSLRAEDTAVYYCAEDMSNSGYGLFDYWGQGTLVTVSS
VL: NIQMTQSPSSMSISVGDRVTMTCKAGQNVDNNIAWYQKKPGQSPKLLIYYASNRNTGVPDRFSGGGYGTDFTLTISSVQPEDAAFYYCQRISNSPYTFGQGTKLELKR
notes: Human IgG1/kappa; also called humanized hLA212_H2/L5
For B3, the Kd in experiment [1] amounted to 120 pM. For the same molecule, the binding result in experiment [2] is on record as “binds”.

B4: humanized anti-human LAG-3 antibody hLA212_H3/L4 (antibody, human IgG1, kappa, V domains shown)
VH: EVQLVESGGGLVQPGGSLRLSCAASGFTYRSYVMAWVRQAPGKGLEWVASISTGGGNTYYRDSVKGRFTISRDNAKNTLYLQMDSLRAEDTAVYYCAEDMSNSGYGLFDYWGQGTLVTVSS
VL: DIQMTQSPSSMSISVGDRVTMTCKAGQNVDNNIAWYQKKPGQSPKLLIYYASNRNTGVPSRFSGSGSGTDFTLTISSVQPEDFATYYCQRISNSPYTFGQGTKLELKR
notes: Human IgG1/kappa; also called humanized hLA212_H3/L4
As for B4, the Kd in experiment [1] was 76 pM. Besides, in experiment [2], the binding result is “binds”.

B5: humanized anti-human LAG-3 antibody hLA212_H2/L1 (antibody, human IgG1, kappa, V domains shown)
VH: EVQLVESGGGLVQPGGSLRLSCAASGFTYRSYVMAWVRQAPGKGLEWVGSISTGGGNTYYRDSVKGRFTISRDNAKNTLYLQMNSLRAEDTAVYYCAEDMSNSGYGLFDYWGQGTLVTVSS
VL: DIQMTQSPSSLSASVGDRVTITCKAGQNVDNNIAWYQQKPGQAPKLLIYYASNRNTGVPSRFSGSGSGTDFTLTISSLQPEDFATYYCQRISNSPYTFGQGTKVEIKR
notes: Human IgG1/kappa; also called humanized hLA212_H2/L1
In experiment [1], B5 came in with a Kd of 110 pM. The binding result in experiment [2] is on record as “binds”.

B6: humanized anti-human LAG-3 antibody hLA212_H2/L3 (antibody, human IgG1, kappa, V domains shown)
VH: EVQLVESGGGLVQPGGSLRLSCAASGFTYRSYVMAWVRQAPGKGLEWVGSISTGGGNTYYRDSVKGRFTISRDNAKNTLYLQMNSLRAEDTAVYYCAEDMSNSGYGLFDYWGQGTLVTVSS
VL: NIQMTQSPSSLSASVGDRVTITCKAGQNVDNNIAWYQKKPGQSPKLLIYYASNRNTGVPDRFSGGGYGTDFTLTISSLQPEDFAFYYCQRISNSPYTFGQGTKVEIKR
notes: Human IgG1/kappa; also called humanized hLA212_H2/L3
Regarding B6, in experiment [1], the equilibrium dissociation constant (Kd) came to 150 pM. The binding result in experiment [2] is given as “binds”.

B7: humanized anti-human LAG-3 antibody hLA212_H2/L2 (antibody, human IgG1, kappa, V domains shown)
VH: EVQLVESGGGLVQPGGSLRLSCAASGFTYRSYVMAWVRQAPGKGLEWVGSISTGGGNTYYRDSVKGRFTISRDNAKNTLYLQMNSLRAEDTAVYYCAEDMSNSGYGLFDYWGQGTLVTVSS
VL: DIQMTQSPSSLSASVGDRVTITCKAGQNVDNNIAWYQQKPGQSPKLLIYYASNRNTGVPSRFSGSGYGTDFTLTISSLQPEDFATYYCQRISNSPYTFGQGTKVEIKR
notes: Human IgG1/kappa; also called humanized hLA212_H2/L2
The molecule B7 came in with a Kd in experiment [1] of 120 pM. Also, the binding result in experiment [2] is reported as “binds”.

B8: humanized anti-human LAG-3 antibody hLA212_H2/L4 (antibody, human IgG1, kappa, V domains shown)
VH: EVQLVESGGGLVQPGGSLRLSCAASGFTYRSYVMAWVRQAPGKGLEWVGSISTGGGNTYYRDSVKGRFTISRDNAKNTLYLQMNSLRAEDTAVYYCAEDMSNSGYGLFDYWGQGTLVTVSS
VL: DIQMTQSPSSMSISVGDRVTMTCKAGQNVDNNIAWYQKKPGQSPKLLIYYASNRNTGVPSRFSGSGSGTDFTLTISSVQPEDFATYYCQRISNSPYTFGQGTKLELKR
notes: Human IgG1/kappa; also called humanized hLA212_H2/L4
Take B8: the Kd in experiment [1] amounted to 96 pM. Besides, in experiment [2], the binding result is given as “binds”.

B9: humanized anti-human LAG-3 antibody hLA212_H3/L5 (antibody, human IgG1, kappa, V domains shown)
VH: EVQLVESGGGLVQPGGSLRLSCAASGFTYRSYVMAWVRQAPGKGLEWVASISTGGGNTYYRDSVKGRFTISRDNAKNTLYLQMDSLRAEDTAVYYCAEDMSNSGYGLFDYWGQGTLVTVSS
VL: NIQMTQSPSSMSISVGDRVTMTCKAGQNVDNNIAWYQKKPGQSPKLLIYYASNRNTGVPDRFSGGGYGTDFTLTISSVQPEDAAFYYCQRISNSPYTFGQGTKLELKR
notes: Human IgG1/kappa; also called humanized hLA212_H3/L5
In turn, B9 yielded a Kd in experiment [1] of 100 pM. Further, the binding result in experiment [2] was “binds”.

B10: humanized anti-human LAG-3 antibody hLA212_H3/L1 (antibody, human IgG1, kappa, V domains shown)
VH: EVQLVESGGGLVQPGGSLRLSCAASGFTYRSYVMAWVRQAPGKGLEWVASISTGGGNTYYRDSVKGRFTISRDNAKNTLYLQMDSLRAEDTAVYYCAEDMSNSGYGLFDYWGQGTLVTVSS
VL: DIQMTQSPSSLSASVGDRVTITCKAGQNVDNNIAWYQQKPGQAPKLLIYYASNRNTGVPSRFSGSGSGTDFTLTISSLQPEDFATYYCQRISNSPYTFGQGTKVEIKR
notes: Human IgG1/kappa; also called humanized hLA212_H3/L1
Regarding B10, the Kd in experiment [1] is 92 pM. In experiment [2], the binding result is “binds”.

B11: humanized anti-human LAG-3 antibody hLA212_H3/L3 (antibody, human IgG1, kappa, V domains shown)
VH: EVQLVESGGGLVQPGGSLRLSCAASGFTYRSYVMAWVRQAPGKGLEWVASISTGGGNTYYRDSVKGRFTISRDNAKNTLYLQMDSLRAEDTAVYYCAEDMSNSGYGLFDYWGQGTLVTVSS
VL: NIQMTQSPSSLSASVGDRVTITCKAGQNVDNNIAWYQKKPGQSPKLLIYYASNRNTGVPDRFSGGGYGTDFTLTISSLQPEDFAFYYCQRISNSPYTFGQGTKVEIKR
notes: Human IgG1/kappa; also called humanized hLA212_H3/L3
In experiment [1], B11 yielded a Kd of 100 pM. Moreover, in experiment [2], the binding result was “binds”.
